Experimental data published in patent US20240392004A1 (IMMUNOWAKE, published 2024).

T1: human IL-2 receptor (IL-2Rα, IL-2Rβ, IL-2Rγ) (human, UniProt P01589 22-272; P14784 27-551; P31785 23-369)
T1 sequence (looked up) 1: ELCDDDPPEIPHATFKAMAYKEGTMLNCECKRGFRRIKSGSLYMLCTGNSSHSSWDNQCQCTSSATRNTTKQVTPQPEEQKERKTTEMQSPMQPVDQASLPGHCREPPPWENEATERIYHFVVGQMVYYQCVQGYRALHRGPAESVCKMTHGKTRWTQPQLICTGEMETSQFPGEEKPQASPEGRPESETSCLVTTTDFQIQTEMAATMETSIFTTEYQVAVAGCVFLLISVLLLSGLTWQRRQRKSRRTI
T1 sequence (looked up) 2: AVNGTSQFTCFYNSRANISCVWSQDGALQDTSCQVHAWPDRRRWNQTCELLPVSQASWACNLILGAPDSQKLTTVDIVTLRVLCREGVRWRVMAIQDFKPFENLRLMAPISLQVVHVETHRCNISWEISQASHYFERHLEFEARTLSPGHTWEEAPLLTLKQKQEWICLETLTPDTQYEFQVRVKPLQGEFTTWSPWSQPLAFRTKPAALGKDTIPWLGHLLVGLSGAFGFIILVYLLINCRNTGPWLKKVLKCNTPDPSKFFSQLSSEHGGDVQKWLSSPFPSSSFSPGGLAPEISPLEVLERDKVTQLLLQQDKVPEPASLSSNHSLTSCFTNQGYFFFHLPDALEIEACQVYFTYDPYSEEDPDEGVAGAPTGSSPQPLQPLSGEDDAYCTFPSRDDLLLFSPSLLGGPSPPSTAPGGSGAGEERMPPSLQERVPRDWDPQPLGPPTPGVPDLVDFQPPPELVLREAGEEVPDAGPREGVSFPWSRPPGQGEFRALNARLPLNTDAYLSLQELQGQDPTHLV
T1 sequence (looked up) 3: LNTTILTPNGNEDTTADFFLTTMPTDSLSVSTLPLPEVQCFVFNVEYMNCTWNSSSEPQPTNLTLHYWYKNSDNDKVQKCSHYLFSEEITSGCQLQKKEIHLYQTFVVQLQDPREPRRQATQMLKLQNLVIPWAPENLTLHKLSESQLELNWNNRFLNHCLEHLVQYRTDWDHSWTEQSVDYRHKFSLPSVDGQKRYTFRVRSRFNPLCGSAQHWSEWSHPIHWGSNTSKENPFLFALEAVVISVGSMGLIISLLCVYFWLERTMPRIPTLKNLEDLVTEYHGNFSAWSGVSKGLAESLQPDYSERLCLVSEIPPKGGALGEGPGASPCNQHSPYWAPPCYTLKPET

T2: human TIGIT on HEK-Blue reporter cells (human, UniProt Q495A1 22-244)
T2 sequence (looked up): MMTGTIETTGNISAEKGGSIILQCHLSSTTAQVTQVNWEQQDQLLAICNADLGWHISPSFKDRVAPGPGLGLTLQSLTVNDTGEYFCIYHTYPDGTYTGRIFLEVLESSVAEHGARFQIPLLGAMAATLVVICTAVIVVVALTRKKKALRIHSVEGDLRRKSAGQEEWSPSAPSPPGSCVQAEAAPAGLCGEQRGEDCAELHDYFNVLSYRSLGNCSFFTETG


How the values were obtained:
Test in all cases: cell-based or functional assay
[1] = biological target: T1, human IL-2 receptor (IL-2Rα, IL-2Rβ, …)
[2] = biological target: T2, human TIGIT on HEK-Blue reporter cells
[3] = biological target: human IL-12 receptor complex (IL-12Rβ1 and IL-12Rβ2) (human, UniProt P42701 24-662; Q99665 24-862)
Sequence of human IL-12 receptor complex (IL-12Rβ1 and IL-12Rβ2) (Q99665 24-862, chain 2 of 2, other chains not shown): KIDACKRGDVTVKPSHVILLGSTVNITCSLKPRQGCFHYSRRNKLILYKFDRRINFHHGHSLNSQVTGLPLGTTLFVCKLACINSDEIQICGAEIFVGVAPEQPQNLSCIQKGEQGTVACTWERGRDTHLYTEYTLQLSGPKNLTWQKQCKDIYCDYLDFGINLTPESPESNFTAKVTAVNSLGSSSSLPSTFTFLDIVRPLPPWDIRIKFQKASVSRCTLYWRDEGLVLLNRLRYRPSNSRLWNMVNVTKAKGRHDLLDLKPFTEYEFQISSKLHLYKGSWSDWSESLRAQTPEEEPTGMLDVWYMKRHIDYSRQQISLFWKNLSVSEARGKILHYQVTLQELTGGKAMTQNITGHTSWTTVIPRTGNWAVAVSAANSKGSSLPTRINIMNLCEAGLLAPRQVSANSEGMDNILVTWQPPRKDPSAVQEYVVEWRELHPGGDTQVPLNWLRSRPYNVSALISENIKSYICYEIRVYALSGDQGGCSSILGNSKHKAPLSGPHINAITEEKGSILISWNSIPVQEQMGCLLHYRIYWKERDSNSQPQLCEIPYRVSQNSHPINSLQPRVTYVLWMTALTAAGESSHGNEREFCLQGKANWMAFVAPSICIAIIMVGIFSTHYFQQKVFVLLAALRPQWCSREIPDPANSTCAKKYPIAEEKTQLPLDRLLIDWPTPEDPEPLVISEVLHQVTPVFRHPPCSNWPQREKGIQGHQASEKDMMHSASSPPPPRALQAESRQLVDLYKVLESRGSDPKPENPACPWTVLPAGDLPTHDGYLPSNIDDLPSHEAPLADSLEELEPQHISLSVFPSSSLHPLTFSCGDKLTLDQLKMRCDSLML

IL-2 signal transduction, HEK-IL-2 [1] [%]	IL-2 signal transduction, HEK-IL-2-TIGIT [2] [%]	IL-12 signal transduction, HEK-IL-12-TIGIT [2] [%]	IL-12 signal transduction, HEK-IL-12 [3] [%]	Binder
< 0.1	< 0.1	35	2	CD155-Fc/IL-12(E59A/F60A) (IL-12 at C'), printed in Table 21 as IL-12(E59A/F60A)/CD155-Fc (Fc fusion) chain 1: WPPPGTGDVVVQAPTQVPGFLGDSVTLPCYLQVPNMEVTHVSQLTWARHGESGSMAVFHQTQGPSYSESKRLEFVAARLGAELRNASLRMFGLRVEDEGNYTCLFVTFPQGSRSVDIWLRVLAKPQNTAEVQKVQLTGEPVPMARCVSTGGRPPAQITWHSDLGGMPNTSQVPGFLSGTVTVTSLWILVPSSQVDGKNVTCKVEHESFEKPQLLTVNLTVYYPPEVSISGYDNNWYLGQNEATLTCDARSNPEPTGYNWSTTMGPLPPFAVAQGAQLLIRPVDKPINTTLICNVTNALGARQAELTVQVKEGPPSEHSGISRNGGGGSGGGDKTHTCPPCPAPEDEGGPSVFLFPPKPKDTLMISRTPEVTCVVVDVSHEDPEVKFNWYVDGVEVHNAKTKPREEQYNSTYRVVSVLTVLHQDWLNGKEYKCKVSNKALPAPIEKTISKAKGQPREPQVYVYPPSREEMTKNQVSLTCLVKGFYPSDIAVEWESNGQPENNYKTTPPVLDEDGSFALVSKLTVDKSRWQQGNVFSCSVMHEALHNHYTQKSLSLSPGKGGGGSGGGIWELKKDVYVVELDWYPDAPGEMVVLTCDTPEEDGITWTLDQSSEVLGSGKTLTIQVKAAGDAGQYTCHKGGEVLSHSLLLLHKKEDGIWSTDILKDQKEPKNKTFLRCEAKNYSGRFTCWWLTTISTDLTFSVKSSRGSSDPQGVTCGAATLSAERVRGDNKEYEYSVECQEDSACPAAEESLPIEVMVDAVHKLKYENYTSSFFIRDIIKPDPPKNLQLKPLKNSRQVEVSWEYPDTWSTPHSYFSLTFCVQVQGKSKREKKDRVFTDKTSATVICRKNASISVRAQDRYYSSSWSEWASVPCSGGGGSGGGSGGGGSRNLPVATPDPGMFPCLHHSQNLLRAVSNMLQKARQTLEFYPCTSEEIDHEDITKDKTSTVEACLPLELTKNESCLNSRETSFITNGSCLASRKTSFMMALCLSSIYEDLKMYQVEFKTMNAKLLMDPKRQIFLDQNMLAVIDELMQALNFNSETVPQKSSLEEPDFYKTKIKLCILLHAFRIRAVTIDRVMSYLNAS chain 2: WPPPGTGDVVVQAPTQVPGFLGDSVTLPCYLQVPNMEVTHVSQLTWARHGESGSMAVFHQTQGPSYSESKRLEFVAARLGAELRNASLRMFGLRVEDEGNYTCLFVTFPQGSRSVDIWLRVLAKPQNTAEVQKVQLTGEPVPMARCVSTGGRPPAQITWHSDLGGMPNTSQVPGFLSGTVTVTSLWILVPSSQVDGKNVTCKVEHESFEKPQLLTVNLTVYYPPEVSISGYDNNWYLGQNEATLTCDARSNPEPTGYNWSTTMGPLPPFAVAQGAQLLIRPVDKPINTTLICNVTNALGARQAELTVQVKEGPPSEHSGISRNGGGGSGGGDKTHTCPPCPAPEKKGGPSVFLFPPKPKDTLMISRTPEVTCVVVDVSHEDPEVKFNWYVDGVEVHNAKTKPREEQYNSTYRVVSVLTVLHQDWLNGKEYKCKVSNKALPAPIEKTISKAKGQPREPQVYVLPPSREEMTKNQVSLLCLVKGFYPSDIAVEWESNGQPENRYMTWPPVLDSDGSFFLYSKLTVDKSRWQQGNVFSCSVMHEALHNHYTQKSLSLSPGK
15	81	42	1	IL-2(L18R/Q22E/R38D/K43E/E61R)/CD155-Fc/IL-12(E59A/F60A) (Fc fusion) chain 1: WPPPGTGDVVVQAPTQVPGFLGDSVTLPCYLQVPNMEVTHVSQLTWARHGESGSMAVFHQTQGPSYSESKRLEFVAARLGAELRNASLRMFGLRVEDEGNYTCLFVTFPQGSRSVDIWLRVLAKPQNTAEVQKVQLTGEPVPMARCVSTGGRPPAQITWHSDLGGMPNTSQVPGFLSGTVTVTSLWILVPSSQVDGKNVTCKVEHESFEKPQLLTVNLTVYYPPEVSISGYDNNWYLGQNEATLTCDARSNPEPTGYNWSTTMGPLPPFAVAQGAQLLIRPVDKPINTTLICNVTNALGARQAELTVQVKEGPPSEHSGISRNGGGGSGGGDKTHTCPPCPAPEDEGGPSVFLFPPKPKDTLMISRTPEVTCVVVDVSHEDPEVKFNWYVDGVEVHNAKTKPREEQYNSTYRVVSVLTVLHQDWLNGKEYKCKVSNKALPAPIEKTISKAKGQPREPQVYVYPPSREEMTKNQVSLTCLVKGFYPSDIAVEWESNGQPENNYKTTPPVLDEDGSFALVSKLTVDKSRWQQGNVFSCSVMHEALHNHYTQKSLSLSPGKGGGGSGGGIWELKKDVYVVELDWYPDAPGEMVVLTCDTPEEDGITWTLDQSSEVLGSGKTLTIQVKAAGDAGQYTCHKGGEVLSHSLLLLHKKEDGIWSTDILKDQKEPKNKTFLRCEAKNYSGRFTCWWLTTISTDLTFSVKSSRGSSDPQGVTCGAATLSAERVRGDNKEYEYSVECQEDSACPAAEESLPIEVMVDAVHKLKYENYTSSFFIRDIIKPDPPKNLQLKPLKNSRQVEVSWEYPDTWSTPHSYFSLTFCVQVQGKSKREKKDRVFTDKTSATVICRKNASISVRAQDRYYSSSWSEWASVPCSGGGGSGGGSGGGGSRNLPVATPDPGMFPCLHHSQNLLRAVSNMLQKARQTLEFYPCTSEEIDHEDITKDKTSTVEACLPLELTKNESCLNSRETSFITNGSCLASRKTSFMMALCLSSIYEDLKMYQVEFKTMNAKLLMDPKRQIFLDQNMLAVIDELMQALNFNSETVPQKSSLEEPDFYKTKIKLCILLHAFRIRAVTIDRVMSYLNAS chain 2: WPPPGTGDVVVQAPTQVPGFLGDSVTLPCYLQVPNMEVTHVSQLTWARHGESGSMAVFHQTQGPSYSESKRLEFVAARLGAELRNASLRMFGLRVEDEGNYTCLFVTFPQGSRSVDIWLRVLAKPQNTAEVQKVQLTGEPVPMARCVSTGGRPPAQITWHSDLGGMPNTSQVPGFLSGTVTVTSLWILVPSSQVDGKNVTCKVEHESFEKPQLLTVNLTVYYPPEVSISGYDNNWYLGQNEATLTCDARSNPEPTGYNWSTTMGPLPPFAVAQGAQLLIRPVDKPINTTLICNVTNALGARQAELTVQVKEGPPSEHSGISRNGGGSGAPTSSSTKKTQLQLEHLRLDLEMILNGINNYKNPKLTDMLTFEFYMPKKATELKHLQCLERELKPLEEVLNLAQSKNFHLRPRDLISNINVIVLELKGSETTFMCEYADETATIVEFLNRWITFCQSIISTLTGGGGSGGGDKTHTCPPCPAPEKKGGPSVFLFPPKPKDTLMISRTPEVTCVVVDVSHEDPEVKFNWYVDGVEVHNAKTKPREEQYNSTYRVVSVLTVLHQDWLNGKEYKCKVSNKALPAPIEKTISKAKGQPREPQVYVLPPSREEMTKNQVSLLCLVKGFYPSDIAVEWESNGQPENRYMTWPPVLDSDGSFFLYSKLTVDKSRWQQGNVFSCSVMHEALHNHYTQKSLSLSPGK
